pKd: −log10 of the molar value.
What was measured:
[1] = biological target: α-synuclein fibrils (human) (UniProt P37840); assay: inhibition ELISA; fibrils against monomers
[2] = biological target: α-synuclein fibrils (human) (UniProt P37840); assay: SPR, BIAcore X100; fibrils immobilised on CM5, mAb injected at 0.01-10 nM

Question: With “Syn-1 (Mouse anti-α-synuclein; BD Bioscience) (antibody)” as the substance, how does the Fold Affinity to Fibrils [1] read?
Answer: The Fold Affinity to Fibrils was 0.476 fold.

Question: “mAb 211 (Santa Cruz Biotechnology) (antibody)” was tested. Which pKd [2] did it give?
Answer: The pKd was 8.59.

Question: What about the koff [2] of the same substance?
Answer: Its koff is 0.000422 s⁻¹.

Question: And the kon [2]?
Answer: Its kon is 165000 M⁻¹ s⁻¹.
